The target in this assay is Histone H4 N-terminal peptide, biotinylated (1–23) (UniProt P62805 2-24, biotin (position not given)). As to the kind of experiment: pull-down.

With SATICRVCQKPGDLVMCNQCEFCFHLDCHLPALQDVPGEEWSCSLCHVLP (domain or fragment, UniProt Q13263 624-673, looked up) [GST-tagged KAP1 PHD (residues 624–673)], the binding result was “binds”.

The values are drawn from paper PMC7305985 (Molecular cell, 2020).
